Test results published in paper PMC10749193 (Frontiers in Immunology, 2023).

Target: SARS-CoV-2 S (Wuhan)-His (1–1273 aa) expressed in HEK293T cells (SARS-CoV-2 Wuhan, UniProt P0DTC2)
Assay: western blot
Settings: one partner purified

B1: anti-S2 monoclonal antibody 4A5 (antibody, V domains shown)
VH: QVKLEQSGPGILQPSQTLSLTCSFSGFSLSTSGMGVSWIRQSSGKGLEWLTHIYWDDDKRYNPSLKSRLTISKDTSRNQVFLKITSVDTADTATYYCARRRMITGLYYAMDYWGQGTSVTVSS
VL: DIVMTQSTLSLPVSFGDQVSISCRSSQSLANSYGITYLSWYLHKPGQSPQLLIYGISNRFSGVPDRFSGSGSGTDFTLKISTIKPEDLGMYYCLQGTHQPWTFGGGTKLEIK
B1: binds.
